Article PMC3285272

Target: S. cerevisiae Arf1 (residues 18–181) with a C-terminal GST tag (S. cerevisiae) (UniProt P11076)
Test: pull-down

Sequence of S. cerevisiae Arf1 (residues 18–181) with a C-terminal GST tag (S. cerevisiae) (P11076 18-181): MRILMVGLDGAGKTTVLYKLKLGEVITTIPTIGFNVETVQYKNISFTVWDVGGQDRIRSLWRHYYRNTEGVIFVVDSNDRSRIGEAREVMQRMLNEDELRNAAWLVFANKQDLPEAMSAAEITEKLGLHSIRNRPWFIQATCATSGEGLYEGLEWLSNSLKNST

- percent of the binding capacity of wild-type protein: 90%
Substance: γζ-COP dimer with full-length γ-COP L128E (from UniProt P53620 1-874; P35604 1-177) (complex)
